Data from the Human Domainome abundance scans (Beltran et al. 2025).
± gives the uncertainty stated by the source.

B1: Nuclear receptor subfamily 1 group D member 2, residues 103 to 171; numbered along this chain, Q14995 (parent)
chain: CKVCGDVASGFHYGVHACEGCKGFFRRSIQQNIQYKKCLKNENCSIMRMNRNRCQQCRFKKCLSVGMSR

Variants of: B1
Assay: abundance fitness (aPCA) (normalised: wild type 0, dead -1); higher = more abundant; growth selection in yeast, the domain comes from the species named
Conditions: Homo sapiens

Row | Variant | abundance fitness
1 | CKVCGDVASGFHYGVHACEGCKGFFRRSIQQNIQYKKCLKYENCSIMRMNRNRCQQCRFKKCLSVGMSR [N41Y] | -0.492 ± 0.35
2 | CKVCGDVASGFHYGVHACEGCKGFFRRSIQQNIQYKKCLKMENCSIMRMNRNRCQQCRFKKCLSVGMSR [N41M] | -0.586 ± 0.17
3 | CKVCGDVASGFHYGVHACEGCKGFFRRSIQQNIQYKKCLKVENCSIMRMNRNRCQQCRFKKCLSVGMSR [N41V] | -0.446 ± 0.13
4 | CKVCGDVASGFHYGVHACEGCKGFFRRSIQQNIQYKKCLKWENCSIMRMNRNRCQQCRFKKCLSVGMSR [N41W] | -0.664 ± 0.24
5 | CKVCGDVASGFHYGVHACEGCKGFFRRSIQQNIQYKKCLKFENCSIMRMNRNRCQQCRFKKCLSVGMSR [N41F] | -0.717 ± 0.41
6 | CKVCGDVASGFHYGVHACEGCKGFFRRSIQQNIQYKKCLKLENCSIMRMNRNRCQQCRFKKCLSVGMSR [N41L] | -0.348 ± 0.12
7 | CKVCGDVASGFHYGVHACEGCKGFFRRSIQQNIQYKKCLKDENCSIMRMNRNRCQQCRFKKCLSVGMSR [N41D] | -0.225 ± 0.24
8 | CKVCGDVASGFHYGVHACEGCKGFFRRSIQQNIQYKKCLKPENCSIMRMNRNRCQQCRFKKCLSVGMSR [N41P] | -0.264 ± 0.13
9 | CKVCGDVASGFHYGVHACEGCKGFFRRSIQQNIQYKKCLKQENCSIMRMNRNRCQQCRFKKCLSVGMSR [N41Q] | -0.285 ± 0.16
10 | CKVCGDVASGFHYGVHACEGCKGFFRRSIQQNIQYKKCLKCENCSIMRMNRNRCQQCRFKKCLSVGMSR [N41C] | -0.738 ± 0.19
11 | CKVCGDVASGFHYGVHACEGCKGFFRRSIQQNIQYKKCLKSENCSIMRMNRNRCQQCRFKKCLSVGMSR [N41S] | -0.022 ± 0.096
12 | CKVCGDVASGFHYGVHACEGCKGFFRRSIQQNIQYKKCLKTENCSIMRMNRNRCQQCRFKKCLSVGMSR [N41T] | -0.047 ± 0.12
13 | CKVCGDVASGFHYGVHACEGCKGFFRRSIQQNIQYKKCLKHENCSIMRMNRNRCQQCRFKKCLSVGMSR [N41H] | -0.638 ± 0.25
14 | CKVCGDVASGFHYGVHACEGCKGFFRRSIQQNIQYKKCLKAENCSIMRMNRNRCQQCRFKKCLSVGMSR [N41A] | -0.219 ± 0.085
15 | CKVCGDVASGFHYGVHACEGCKGFFRRSIQQNIQYKKCLKEENCSIMRMNRNRCQQCRFKKCLSVGMSR [N41E] | -0.063 ± 0.089
16 | CKVCGDVASGFHYGVHACEGCKGFFRRSIQQNIQYKKCLKGENCSIMRMNRNRCQQCRFKKCLSVGMSR [N41G] | -0.036 ± 0.09
17 | CKVCGDVASGFHYGVHACEGCKGFFRRSIQQNIQYKKCPKNENCSIMRMNRNRCQQCRFKKCLSVGMSR [L39P] | -0.106 ± 0.11
18 | CKVCGDVASGFHYGVHACEGCKGFFRRSIQQNIQYKKCSKNENCSIMRMNRNRCQQCRFKKCLSVGMSR [L39S] | 0.165 ± 0.082
19 | CKVCGDVASGFHYGVHACEGCKGFFRRSIQQNIQYKKCGKNENCSIMRMNRNRCQQCRFKKCLSVGMSR [L39G] | -0.163 ± 0.063
20 | CKVCGDVASGFHYGVHACEGCKGFFRRSIQQNIQYKKCFKNENCSIMRMNRNRCQQCRFKKCLSVGMSR [L39F] | -0.57 ± 0.24

Row | Variant | abundance fitness
21 | CKVCGDVASGFHYGVHACEGCKGFFRRSIQQNIQYKKCNKNENCSIMRMNRNRCQQCRFKKCLSVGMSR [L39N] | 0.018 ± 0.13
22 | CKVCGDVASGFHYGVHACEGCKGFFRRSIQQNIQYKKCYKNENCSIMRMNRNRCQQCRFKKCLSVGMSR [L39Y] | -0.02 ± 0.16
23 | CKVCGDVASGFHYGVHACEGCKGFFRRSIQQNIQYKKCIKNENCSIMRMNRNRCQQCRFKKCLSVGMSR [L39I] | 0.161 ± 0.2
24 | CKVCGDVASGFHYGVHACEGCKGFFRRSIQQNIQYKKCHKNENCSIMRMNRNRCQQCRFKKCLSVGMSR [L39H] | -0.167 ± 0.17
25 | CKVCGDVASGFHYGVHACEGCKGFFRRSIQQNIQYKKCEKNENCSIMRMNRNRCQQCRFKKCLSVGMSR [L39E] | 0.262 ± 0.13
26 | CKVCGDVASGFHYGVHACEGCKGFFRRSIQQNIQYKKCDKNENCSIMRMNRNRCQQCRFKKCLSVGMSR [L39D] | 0.321 ± 0.12
27 | CKVCGDVASGFHYGVHACEGCKGFFRRSIQQNIQYKKCMKNENCSIMRMNRNRCQQCRFKKCLSVGMSR [L39M] | 0.1 ± 0.14
28 | CKVCGDVASGFHYGVHACEGCKGFFRRSIQQNIQYKKCWKNENCSIMRMNRNRCQQCRFKKCLSVGMSR [L39W] | -0.559 ± 0.18
29 | CKVCGDVASGFHYGVHACEGCKGFFRRSIQQNIQYKKCAKNENCSIMRMNRNRCQQCRFKKCLSVGMSR [L39A] | 0.084 ± 0.075
30 | CKVCGDVASGFHYGVHACEGCKGFFRRSIQQNIQYKKCQKNENCSIMRMNRNRCQQCRFKKCLSVGMSR [L39Q] | -0.068 ± 0.15
31 | CKVCGDVASGFHYGVHACEGCKGFFRRSIQQNIQYKKCKKNENCSIMRMNRNRCQQCRFKKCLSVGMSR [L39K] | -0.128 ± 0.18
32 | CKVCGDVASGFHYGVHACEGCKGFFRRSIQQNIQYKKCTKNENCSIMRMNRNRCQQCRFKKCLSVGMSR [L39T] | -0.121 ± 0.16
33 | CKVCGDVASGFHYGVHACEGCKGFFRRSIQQNIQYKKCLKNTNCSIMRMNRNRCQQCRFKKCLSVGMSR [E42T] | -0.671 ± 0.19
34 | CKVCGDVASGFHYGVHACEGCKGFFRRSIQQNIQYKKCLKNLNCSIMRMNRNRCQQCRFKKCLSVGMSR [E42L] | -0.847 ± 0.15
35 | CKVCGDVASGFHYGVHACEGCKGFFRRSIQQNIQYKKCLKNKNCSIMRMNRNRCQQCRFKKCLSVGMSR [E42K] | -0.109 ± 0.14
36 | CKVCGDVASGFHYGVHACEGCKGFFRRSIQQNIQYKKCLKNRNCSIMRMNRNRCQQCRFKKCLSVGMSR [E42R] | -0.639 ± 0.11
37 | CKVCGDVASGFHYGVHACEGCKGFFRRSIQQNIQYKKCLKNDNCSIMRMNRNRCQQCRFKKCLSVGMSR [E42D] | -0.025 ± 0.1
38 | CKVCGDVASGFHYGVHACEGCKGFFRRSIQQNIQYKKCLKNNNCSIMRMNRNRCQQCRFKKCLSVGMSR [E42N] | -0.004 ± 0.12
39 | CKVCGDVASGFHYGVHACEGCKGFFRRSIQQNIQYKKCLKNCNCSIMRMNRNRCQQCRFKKCLSVGMSR [E42C] | -0.592 ± 0.26
